Molecular target: SARS-CoV 3C-like protease (3CL^pro) (SARS-CoV (strain CUHK-Su10)) (UniProt P0C6X7)
Test: SEC; […] (20 mM Tris, 20 mM NaCl, pH 7.8); […]

SARS-CoV 3C-like protease (3CL^pro) (from UniProt P0C6X7 3241-3546) (enzyme)
stoichiometry N: 2
